Experiment: yeast display, Sf9 membrane polyspecificity reagent, FACS + sequencing; frameworks hold sequencing errors
How it was run: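 Using colony PCR, genes from sorted yeast display clones were amplified, then sequenced on MiSeq at 2 × 250 and filtered by CDR length. The clones had been stained with 10% biotinylated, detergent-solubilized Sf9 membrane reagent for 1 hour at 4 °C and sorted by FACS into low and high (top ~1%) gates on anti-HA and streptavidin fluorescence. Polyreactivity labels come from the gate of origin.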

| Sequence | polyreactivity (PSR sort gate) |
| --- | --- |
| QVQLVESGGGLVQAGGSLRLSCAASGRTLEQYAMGWYRQAPGKERELVAAINKSGARTYYADSVKGRFTISRDNAKNSVYLQMNSQKPEDTAVYYCNTVGPSYLFDYWGQGTQVTVSS | high polyreactivity |
| QVQLVESGGGLVQAGGSLRLSCAASGRTLFRYAMGWYRQAPGKERELVAAISRSGGTTYYADSVKGRFTISRDNAKNTVYLQMNSLKPEDTAVYYCAARGRYKDGYRMDYWGQGTQVTVSS | high polyreactivity |
| QVQLVESGGGLVQAGGSLRLSCAASGRTLFVYAMGWYRQAPGKEREFVAAIRWRGGSTYYADSVKGRFTISRDNAKNTVYLQMNSLKPEDTAVYYCAADTYWVKTDYLYGYWGQGTQVTVSS | high polyreactivity |
| QVQLVESGGGLVQAGGSLRLSCAASGRTLGIYAMGWYIQAPGKERELVADISRDSSTYYADSVKGRFTISRDNAKNTVYLQMNSLKPEDTAVYYCNADQTPRDVTDWWYDYDYWGQGTQVTVSS | low polyreactivity |
| QVQLVESGGGLVQAGGSLRLSCAASGRTLGTNAMGWYRQARGKERELVAAISRTGTSTYYADSVKGRFTISRDNAKNTVYLQMNSLKPEDTAVYYCAVRVPVSIPPGNYYYWGQGTQVTVSS | high polyreactivity |
| QVQLVESGGGLVQAGGSLRLSCAASGRTLGTYAMGWYRQAPGKERELVAAITSGGSTYYADSVKGRFTISRDNAKNTVYLQMNSLKPEDTAVYYRATYSYYYWGQGTQVTVSS | low polyreactivity |
| QVQLVESGGGLVQAGGSLRLSCAASGRTLIAYAMGWYRQAPGKEREFVAAIRADDGRTYYADSVKGRFTISRDNAKNTVYLQMNSLKPEDTAVYYCATKADKRYGFGYWGQGTQVTVSS | high polyreactivity |
| QVQLVESGGGLVQAGGSLRLSCAASGRTLIAYAMGWYRQAPGKEREFVAAIRADDGRTYYADSVKGRFTISRDNAMNTVYLQMNSLKPDDTAVYYCATKADKRYRFGYWGQGTQVTVSS | high polyreactivity |
| QVQLVESGGGLVQAGGSLRLSCAASGRTLKYNAMGWYRQAPGKERELVAAISYSGSSTYYADSVKGRFTISRDNAKNTVYLQMNSLKPEDTAVYYCNTARPTAAYDYWGQGTQVTVSS | low polyreactivity |
| QVQLVESGGGLVQAGGSLRLSCAASGRTLLKYAMGWYRQATGKEREFVAAITRSGSSTYYADSVKGRFTISRDNAKNTVYLQMNSLKPEDTAVYYCAARLYRVTLDYWGQGTQVTVSS | low polyreactivity |
| QVQLVESGGGLVQAGGSLRLSCAASGRTLLLNTMGWYRQAPGKERELFAAISWRDGSTYYADSVKRRFTISRDNAKITVYLQMNSLIPEDTAVYYCNARLSGRSPYDLRFDYWGQGTQVTVSS | low polyreactivity |
| QVQLVESGGGLVQAGGSLRLSCAASGRTLLPNALGWYRQAPGKERELVASIRDGGDTNYADSVKGRFTISRDNAKKTVYLQMNSLQPEDTGVYYCNADWWAYYSFGHEYWGLGTQVTVSS | low polyreactivity |
| QVQLVESGGGLVQAGGSLRLSCAASGRTLQIYVMGWYRQAPGKERELVASITGRGGSTYYADSVKGRFTISRDNAKNTVYLQMNSLKPEDTAVYYCARRYYRLDYWGQGTQVTVSS | high polyreactivity |
| QVQLVESGGGLVQAGGSLRLSCAASGRTLRKYAMGWYRQAPGKERELVAAITTSGGSTYYADSVKGRFTISRDNAKNTVYLQMNSLKPEDTAVYYCNAARYYAYIGDYWGQGTQVTVSS | high polyreactivity |
| QVQLVESGGGLVQAGGSLRLSCAASGRTLRLNAMGWYRQAPGKQREFVDAISRSGDSTYYADSVKGRFTISRDNAKNTVYLQMNSLKPEDTAVYYCNAKYYRYPCAYRYDYWGQGTQVTVSS | high polyreactivity |
| QVQLVESGGGLVQAGGSLRLSCAASGRTLRQYAMGRYRQAPGKERELVAAISRGGSTTYADSVKGRFTISRDNAKNTVYLQMNSLKPEDTAVYYCNAELNWYYYIHLDYWGQGTQVTVSS | low polyreactivity |
| QVQLVESGGGLVQAGGSLRLSCAASGRTLRSYTMGWYRQAPGKERELVAAINWNGGTTYYADSVKGRFTISRDNAKNTVYLQMNSLKAEDTAVYYCAAESSRWHTYWYSLSNLGRGYWGQGTQVTVSS | high polyreactivity |
| QVQLVESGGGLVQAGGSLRLSCAASGRTLRTYTMGWYRQAPGKERELVAAISSSDDSTYYADSVKGRFTISRDNAKNTVYLQMNSLKPEDTAVYYCAKDGLYPTEYGYWGQGTQVTVSS | high polyreactivity |
| QVQLVESGGGLVQAGGSLRLSCAASGRTLRYNAMGWDRQAPGKERELVAAISTRGTNTYYADSVKGRFTISRDNAKNTVYLQMNSLKPEDTAVYYCAAKKGGYPYSVYSGTRHNYWGQGTQVTVSS | high polyreactivity |
| QVQLVESGGGLVQAGGSLRLSCAASGRTLSRYTMGWYIQAPGKERELVAGITRSGGSTYYPDSEKGRFTISRDNAKNTVYLQMNSLKPEDTAVYYCAARWHFLTSSRFDYWGQGTQVTVSS | high polyreactivity |
| QVQLVESGGGLVQAGGSLRLSCAASGRTLSWYAMGWYRQAPGKEWEFVAAITSSGASTYYADSVKGRFTISRDNANNTVYLQMNSLKPEDTAVYYCNAAWRRVWFNYCGQGTQVTVSS | high polyreactivity |

| Sequence | polyreactivity (PSR sort gate) |
| --- | --- |
| QVQLVESGGGLVQAGGSLRLSCAASGRTLTGYAMGWYRQAPGKERELVAAITWRDSTYYADSVKGRFTISRDNAKNSVYLQMNSLKPEDTAVYYCNADNATYFVYEFNYWGQGTQVTVSS | low polyreactivity |
| QVQLVESGGGLVQAGGSLRLSCAASGRTLTYNVMGWYRPAPGKERELVASISATGGSTYYADSVKGRFTISRDNAKNTVYLQMNSLKPEDTAVYSCAARGYRYHYATRYDYWGQATQVTVSS | high polyreactivity |
| QVQLVESGGGLVQAGGSLRLSCAASGRTLVHYAMGWYRQAPGKERELVAAISYSGGRTYYADSVKGRFTISRDNAKNTVYLQMNSLKPEDTAVYYCAAEIVYPAIGGYGYWGQGTQVTVSS | low polyreactivity |
| QVQLVESGGGLVQAGGSLRLSCAASGRTLVLNMGWYRPAPGKERELVATINSGGSTYYADSVKGRFTISRDNAKNTVYLQMNSLKPEDTAVYYCAVLSSDGKFDYWGQGTQVTVSS | low polyreactivity |
| QVQLVESGGGLVQAGGSLRLSCAASGRTLVYYAMGSYRQSPGKERELVAAISWSGSRTYYADSVKGRFTISRDNAKNTVYLQMNSLKPEDTAVYYCATLTFRTNGTMDYWGQGTQVTVSS | high polyreactivity |
| QVQLVESGGGLVQAGGSLRLSCAASGRTLWGNAMGWYRQAPGKERELVAAISRSGYTNYADSVKGRFTISRDNAKNTVYLLMNRLKPEDTAVYYCNARSTRSRTYQSYDYWGQGTQVTVSS | high polyreactivity |
| QVQLVESGGGLVQAGGSLRLSCAASGRTLWYYTMGWYRQAPGKERELVADITRGTSTNYADSVKGRFTISRDNAKNTVYLQMNSLKPEDTAVYHCNRAHGRSRYSRDYDSWGQGTQVTVSS | low polyreactivity |
| QVQLVESGGGLVQAGGSLRLSCAASGRTLYFNAMGWYRQAPGKERALVADISIGGSTYSADSVKGRFTISRDNAKNTVYLQMNSLKPEDSAVYYCAANAHYYVSYAWSVDVDYWGQGTQVTVSS | high polyreactivity |
| QVQLVESGGGLVQAGGSLRLSCAASGRTLYGYAMGWYRQAPGKERELVAAISKRGTRTYHADSVKGRFTISRDNAKNTVYLQMNSLKPEDTAVYFCGARYPPDEATMEYWGQGTQVTVSS | high polyreactivity |
| QVQLVESGGGLVQAGGSLRLSCAASGRTLYLNAMGWYRQAPGKERELVASISRGGGSTYYADSVKGRFTISRDNAKYTVYLQMNSLKPEDTAVYYCAATGAGDYDYWGQGTQVTVSS | low polyreactivity |
| QVQLVESGGGLVQAGGSLRLSCAASGRTLYNYAMGWYRQAPGKERELVAAISSSGSTNYADSVKVRFTISRDNAKNTVYLQMNSLKPEDTAVYYCAKGYPWRYSIMDYWGQGTQVTVSS | low polyreactivity |
| QVQLVESGGGLVQAGGSLRLSCAASGRTLYYYAMGWYRQAPGKERELVARISSRGGSTYYADSVKGRFTISRDNAKNTVYLQMNSLKPEDTAVYYCAADGPGTSEDDYWGQGTQVTVSS | high polyreactivity |
| QVQLVESGGGLVQAGGSLRLSCAASGRTMGYNTMGWYRQAPGKERELVARISYGGSTYYAESVKGRFTISRDNAKNTVYLQMNSLIPEDTAVYYCAAEARSYRYPYNYWGQGTQVTVSS | high polyreactivity |
| QVQLVESGGGLVQAGGSLRLSCAASGRTSAWYAMGWYRQAPGKERDLVATISYTGGRTYYADSVKGRFTISRDNAKNTVYLQMNSLKPEDTAVYYCAKRYTSWFSSKFDYWGQGTQVTVSS | high polyreactivity |
| QVQLVESGGGLVQAGGSLRLSCAASGRTSEIYTMGWYRPAPGKERELVASINTNYADSVKGGFTNSRDNAKNTVYLQMNCLKPEDTAVYYCNADDTIEFNYWGQGTQVTVSW | low polyreactivity |
| QVQLVESGGGLVQAGGSLRLSCAASGRTSGGYAMGWYRQAPGKERELVATITQSGGRTYYADSVKGRFTISRDNAKNTVYLQMNSLKPEDTAVYYCAAQYGRTYYSRREYWGQGTQVTVSS | high polyreactivity |
| QVQLVESGGGLVQAGGSLRLSCAASGRTSGRYAMGWYRQAPGKERELVAGITSSGGSTYYADSVKGRFTISRDNAKNSVYLQMNSLKPEDTAVYYCAKVWGAKGKTYRMYSWGQGTQVTVSS | high polyreactivity |
| QVQLVESGGGLVQAGGSLRLSCAASGRTSIGNAMGWYRQAPGKERELVASISWSGGSTYYADSVKGRFTISRDNAKNTVYLQMNSLKPEDTAVYYCAKTAYFLVFNEHLHKKRYDSWGLGTQVTVSS | low polyreactivity |
| QVQLVESGGGLVQAGGSLRLSCAASGRTSVINAMGWYRQATGKERELVAAITKRGGSTYYADSVKGRFTISRDNAKNTVYLQMNSLKPEDTAVYYCAKYAISIQYDSWGQGTQVTVSS | high polyreactivity |
| QVQLVESGGGLVQAGGSLRLSCAASGRTSVIYAMGWYGPAPGKERELVASIRRGCSTSYADSVKGRFTISRDNAKNTVYLQMNSLKPEDTAVFYCAALLYGYYHVWRNYYWGQGTQVTVSS | high polyreactivity |

Reference: the nanobody polyreactivity screen of Harvey et al. (2022)
